The record followed here is article PMC2832190.

The series deals with (Ni2+-NTA)2-Cy3-His6-AGT (O6-alkylguanine-DNA alkyltransferase) (human, UniProt P16455 1-207). In words: FRET.
Chain of (Ni2+-NTA)2-Cy3-His6-AGT (O6-alkylguanine-DNA alkyltransferase) (P16455 whole entry): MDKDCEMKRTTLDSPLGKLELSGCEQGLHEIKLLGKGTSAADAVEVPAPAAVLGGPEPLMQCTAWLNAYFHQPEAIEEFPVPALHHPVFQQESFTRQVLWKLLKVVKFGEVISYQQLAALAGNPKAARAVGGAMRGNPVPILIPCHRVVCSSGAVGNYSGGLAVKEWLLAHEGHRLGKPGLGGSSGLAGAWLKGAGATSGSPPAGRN

B1: FAM-DNA 26-mer (ssDNA)
DNA: GACTGACTGACTGACTGACTGACTGA
Take B1: the “apparent K (half saturation)” value came out at 554000 M⁻¹.
